Experimental data from patent US7491501B2, “Methods for identifying modulators of intracellular aggregate formation” (Auburn University, priority 2003, dated 2009).

Legend:
Assay type in all cases: cell-based
[1] = target: T1, p62-TRAF6 interaction (Homo sapiens, UniProt Q9Y4K3); test: p62-TRAF6 interaction in HEK cells after IL-1 stimulation, p62 UBA domain pull-down (FIG. 2C); settings: increasing doses of peptide
T1 construct: endogenous in cells; host or cells: HEK 293
T1 sequence (Q9Y4K3 1-522): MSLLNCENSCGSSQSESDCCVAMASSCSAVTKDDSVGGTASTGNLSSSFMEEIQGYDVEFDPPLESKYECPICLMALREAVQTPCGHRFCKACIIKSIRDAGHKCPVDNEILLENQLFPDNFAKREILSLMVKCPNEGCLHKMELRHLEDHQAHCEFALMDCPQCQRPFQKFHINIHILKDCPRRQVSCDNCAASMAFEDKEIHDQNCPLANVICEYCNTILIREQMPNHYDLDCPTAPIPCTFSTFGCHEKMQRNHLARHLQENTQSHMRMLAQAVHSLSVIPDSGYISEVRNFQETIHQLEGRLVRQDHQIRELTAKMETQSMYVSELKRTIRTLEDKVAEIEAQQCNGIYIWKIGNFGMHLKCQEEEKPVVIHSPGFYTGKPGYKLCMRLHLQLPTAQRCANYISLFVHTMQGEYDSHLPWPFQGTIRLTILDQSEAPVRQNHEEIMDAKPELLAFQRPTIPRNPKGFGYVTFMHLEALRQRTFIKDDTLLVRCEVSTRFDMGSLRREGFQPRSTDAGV
Protocol: GST Pull-Down Assay—Glutathione beads coupled with p62 UBA domain were washed three times with binding buffer (20 mM Tris-HCl, pH 7.6, 50 mM NaCl, 0.1% Nonidet P-40, […], 1 mM phenylmethylsulfonyl fluoride) containing 25 μg/ml of BSA. For each mg of lysate, 2.5 μg of GST-UBA domain was added and rotated for 2 h at room temperature. The beads were washed 3 times with binding buffer and boiled in SDS-PAGE sample buffer, followed by separation employing a 7.5% SDS-gel, and western blotting with appropriate antibody.
A peptide (plain type, SEQ ID NO. 6) containing the TRAF6-binding motif present in p62 (underlined type) along with the hydrophobic sequence containing the cell-permeable motif (italicized type) from Kaposi fibroblast growth factor signal sequence was synthesized ([…]-[…]) (SEQ ID NO. 4) or a control peptide with mutant amino acids in the interaction motif (AAVA […]-[…])(SEQ ID NO. 5). […] HEK cells were treated or not with increasing doses of control or TRAF6 inhibitory peptide, followed by stimulation with IL-1. Lysates were prepared and included in a pull-down employing the UBA domain of p62. Should the p62-UBA domain bind K63-polyubiquitinated substrate proteins, a dose-dependent reduction in interaction of the lysates would occur with lysates prepared from cells pretreated with TRAF6 inhibitory peptide. In fact, this is what was found (FIG. 2C).

[2] = target: T2, interaction of p62 with TRAF6 (Rattus norvegicus, UniProt B5DF45); test: TRAF6 immunoprecipitation and Western blot for p62/UbcH7 in NGF-stimulated PC12 cells; settings: NGF 15 min
T2 construct: followed by NGF stimulation for 15 min and immunoprecipitation of TRAF6 followed by Western blotting for p62; endogenous in cells; host or cells: PC12
T2 sequence (B5DF45 whole entry): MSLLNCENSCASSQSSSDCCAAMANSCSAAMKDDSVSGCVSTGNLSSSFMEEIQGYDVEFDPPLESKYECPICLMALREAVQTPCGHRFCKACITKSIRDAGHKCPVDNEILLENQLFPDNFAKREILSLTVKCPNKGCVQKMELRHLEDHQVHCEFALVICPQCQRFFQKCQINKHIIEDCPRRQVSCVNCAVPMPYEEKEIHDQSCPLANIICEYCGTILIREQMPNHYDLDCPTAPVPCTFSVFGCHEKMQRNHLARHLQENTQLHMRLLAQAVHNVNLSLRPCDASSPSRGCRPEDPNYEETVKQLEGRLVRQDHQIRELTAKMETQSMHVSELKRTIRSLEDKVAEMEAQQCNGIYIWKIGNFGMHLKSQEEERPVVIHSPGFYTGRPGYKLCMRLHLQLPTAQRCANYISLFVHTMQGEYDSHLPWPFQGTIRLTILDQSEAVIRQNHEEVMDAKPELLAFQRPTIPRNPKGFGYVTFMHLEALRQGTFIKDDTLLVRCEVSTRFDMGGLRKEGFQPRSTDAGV
T2 sequence (D3Z8W5 1-154 partner): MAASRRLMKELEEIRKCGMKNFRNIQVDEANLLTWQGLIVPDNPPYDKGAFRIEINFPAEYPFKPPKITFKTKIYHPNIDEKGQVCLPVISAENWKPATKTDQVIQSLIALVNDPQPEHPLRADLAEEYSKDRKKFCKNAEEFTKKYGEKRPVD
Protocol: Immunoprecipitation and Western blotting—Each mg of lysate/inclusion bodies was incubated with 41 ng of primary antibody at 4° C. for 3 h and then with 50 μl of 50% agarose-coupled secondary antibody for 2 more hours at 4 C. The beads were washed three times with lysis buffer, eluted by adding SDS-PAGE sample buffer, and subjected to SDS-PAGE in 7.5-12% acrylamide gels. Immunoblotting was performed on nitrocellulose membranes and analyzed by western blotting with ECL detection reagents (Amersham Biosciences).
(§1) The region spanning amino acids 225-251 is necessary for the interaction of p62 with TRAF6. The peptide containing TRAF6 binding motif in p62 along with the hydrophobic sequence containing the cell-permeable motif from Kaposi fibroblast growth factor sequence, […]-[…] (SEQ ID NO. 4) and control peptide […]-[…] (SEQ ID NO. 5) was synthesized. As a preliminary step, PC12 cells were pretreated with various concentrations of peptide for 5 h, followed by NGF stimulation for 15 min and immunoprecipitation with TRAF6 and western blotted with p62. […] The peptide was then tested for its ability to block NGF-induced tau polyubiquitination (FIG. 13A).
(§2) The peptide containing the TRAF6-binding motif in p62 along with the hydrophobic sequence containing the cell-permeable motif from Kaposi fibroblast growth factor signal sequence […]-[…] (SEQ ID NO. 4) and control peptide […]-[…] (SEQ ID NO. 5) was synthesized. As a preliminary step, PC12 cells were pretreated with different concentrations (75-300 μM) of TRAF6 peptide for 5 hours followed by NGF stimulation for 15 min and immunoprecipitation of TRAF6 followed by Western blotting for p62. […] To address whether TRAF6 peptide affects the interaction of p62 and UbcH7 with TRAF6, PC12 cells were treated with or without 150 μM of control peptide or TRAF6 peptide for 5 hours and then stimulated with NGF for 15 min. By immunoprecipitating TRAF6, TRAF6 peptide (150 μM) abrogated the interaction of p62 with TRAF6, but not UbcH7, upon NGF treatment (FIG. 8A). […] The ability of the TRAF6 peptide to impair the ubiquitination process was investigated. Lysates recovered from NGF treated cells were immunoprecipitated with TrkA receptor antibody and blotted for ubiquitin or the receptor (FIG. 15B). […] The ability of the peptide to interrupt the formation of the functional TrkA-p62-TRAF6-UbcH7 complex on NGF stimulation as well was also investigated. TrkA was immunoprecipitated and blotted for the presence of each protein in the complex (FIG. 15C).

[3] = system: tau polyubiquitination; test: NGF-induced tau polyubiquitination in PC12 cells (FIG. 13A); settings: control not shown
Protocol: as §1

[4] = system: TrkA; test: NGF-dependent TrkA ubiquitination and TrkA complex formation in PC12 cells (FIG. 15B, 15C); settings: TrkA immunoprecipitation
Protocol: as §2

[5] = system: internalization of NGF by PC12 cells; test: Internalization of NGF, 125I-NGF binding assay in PC12 cells (FIG. 15D); settings: PC12 cells pretreated with peptide (150 μM); control not shown
Protocol: Additionally, PC12 cells were pretreated or not with TRAF6 peptide (150 μM) followed by measurement of internalized receptor employing 125I-NGF binding assay (FIG. 15D). […] Similarly, the level of internalized NGF was measured in PC12 cells transfected with wild-type ubiquitin, K48R or K63R ubiquitin mutants (FIG. 15E). Transfection of ubiquitin, or K48R mutant was without any effect on internalization of NGF. By comparison, transfection of K63R ubiquitin mutant totally abrogated internalization of the ligand. […] Thus, p62 serves as an adaptor, as well as, a scaffold for TRAF6-directed ubiquitination and K63 chains play a signaling role for internalization and sorting of the receptor.

interaction of UbcH7 with TRAF6 ([2]; 150 μM peptide 5 hours): not
interaction of p62 with TRAF6 ([2]; 150 μM peptide 5 hours): completely abrogated
optimum dose to block the interaction of p62 with TRAF6 ([2]; 75-300 μM peptide 5 hours, not shown): 150 µM
concentration of peptide found to block TRAF6 interaction with p62 ([2]; peptide 5 h, not shown): One hundred and fifty
Substance: AAVALLPAVLLALLAP-ESASGPSEDPSVNFLK (AAVALLPAVLLALLAPESASGPSEDPSVNFLK; artificial sequence for cell permeable peptide) [TRAF6 peptide]
p62-TRAF6 interaction [1]: blocked p62-TRAF6 interaction in a dose-dependent fashion
NGF-induced tau polyubiquitination [3]: completely abrogated
TRAF6 and UbcH7 interacting with TrkA ([4]; NGF stimulation): eliminated
interaction of p62 and TrkA ([4]; NGF stimulation): did not disrupt
NGF-dependent ubiquitination of TrkA ([4]; NGF treated): effectively abolish
internalization of NGF [5]: significantly blocked
